Assay [1] has as its target GCN4-TRAK1_(342-431) (UniProt Q9UPV9). Put plainly: ITC; VP-ITC, 25 °C; ITC buffer (20 mM Hepes pH 7.5, 400 mM NaCl, 1 mM MgCl2, 5% w/v sucrose, 0.1 μM GTP) with 5 mM EGTA; the binder of each row in the syringe.
Assay [2] has the same target. The experiment in a line: ITC; VP-ITC, 25 °C; ITC buffer (20 mM Hepes pH 7.5, 400 mM NaCl, 1 mM MgCl2, 5% w/v sucrose, 0.1 μM GTP) with 50 μM CaCl2; MIRO1_(177-591) in the syringe, TRAK1 construct in the cell. (ITC needs no label: the signal is the heat of the interaction.)

MIRO1_(177-591), sequence (Q8IXI2 177-591): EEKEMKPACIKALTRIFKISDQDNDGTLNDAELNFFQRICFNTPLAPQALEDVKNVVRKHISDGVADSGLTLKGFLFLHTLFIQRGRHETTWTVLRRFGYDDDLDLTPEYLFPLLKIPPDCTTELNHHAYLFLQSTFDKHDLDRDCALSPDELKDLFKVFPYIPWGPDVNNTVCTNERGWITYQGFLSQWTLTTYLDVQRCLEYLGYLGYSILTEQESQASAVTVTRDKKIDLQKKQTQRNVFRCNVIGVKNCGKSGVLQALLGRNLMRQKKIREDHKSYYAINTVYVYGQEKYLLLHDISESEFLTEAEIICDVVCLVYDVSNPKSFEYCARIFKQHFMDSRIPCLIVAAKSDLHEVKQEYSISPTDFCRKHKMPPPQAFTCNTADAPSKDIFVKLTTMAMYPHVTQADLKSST

By Kd is commonly meant the constant that tells how readily two partners part at equilibrium. A word on the stoichiometry N: it is a count of units in the complex or per binding partner. As for “MIRO1_(177-591) (from UniProt Q8IXI2 177-591) (domain or fragment)”, in the assay with GCN4-TRAK1_(342-431) [1], the Kd came to 5.13 µM and the stoichiometry N stood at 1.84. In the assay with GCN4-TRAK1_(342-431) [2], this substance came in with a Kd of 7.04 µM and a stoichiometry N of 1.93.

Source of the values: article PMC10746525.
